Reference: the nanobody polyreactivity screen of Harvey et al. (2022)

Assay: yeast display, Sf9 membrane polyspecificity reagent, FACS + sequencing; frameworks hold sequencing errors
In short: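 A synthetic nanobody library was expressed on Saccharomyces cerevisiae BJ5465 by galactose induction for 36–48 hours. The library was stained for 1 hour at 4 °C with 10% biotinylated, detergent-solubilized Sf9 membrane reagent and enriched with streptavidin microbeads before FACS. Low and high (top ~1%) gates were set on anti-HA fluorescence for expression and streptavidin fluorescence for reagent binding, and each polyreactivity label reflects the gate of origin.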

| Sequence | polyreactivity (PSR sort gate) |
| --- | --- |
| QLQLVESGGGLVQAGGSLRLSCAASGRIFVRYAMGWYRQAPGKERELVAAISGRGTSTYYADSVKGRFTISRDNAKNTVYLQMNSLKPEDTAVYDCNTFSQPKWGTSDYDYWGQGTQVTVSS | high polyreactivity |
| QLQLVESGGGLVQAGGSLRLSCAASGRIYLYAMGWSRQAPGKERELVAAITTRAGRTYYADSVKGRFTISRDNAKNTVYFQMNSLKPEDTAVYYCAADGTRYPAYGYWGQGTQVTVSS | low polyreactivity |
| QLQLVESGGGLVQAGGSLRLSCAASGRTFRSYTMGRYRQAPGKERELVASITRSGVSTYYADSVKGRFTISRDNAKNTVYLQMNSLKPEDTAVYYCAAYSVFRSYDYWGQGTQVTVSS | high polyreactivity |
| QLQLVESGGGLVQAGGSLRLSCAASGSIFGDNAMGWYRQAPGKERELVAAISSSGGSTYADSVKGRFTISRDNAKNTVYLQMNSLKPEDTAVYYCATQIAWGTYVINPQMDYWGQGTQVTVSS | low polyreactivity |
| QLQLVESGGGLVQAGGSLRLSCAASGSIFGPYARGWYRQAPGKERELVAAITDGGGSTYYADSVKGRFTISRDNAKNTVYLQMNSLKPEETAVDYCAADHSSKSGPADTFYWFDYWGQGTQVTVSS | low polyreactivity |
| QLQLVESGGGLVQAGGSLRLSCAASGSILTINAMGWYSQAPGKERELVAAITGNGGSTDYADSVKVRFTISRDNAKNTVYLQMNSQKPEDTAVYYCAARVRGTGVYGGYNYWGQGTQVTVSS | high polyreactivity |
| QLQLVESGGGLVQAGGSLRLSCAASGSTFDTYAMGWYRHAPGKERELVAGINTDGDNTYYADSVKGRFTISRDNAKNTVYVQMNSLKPEDTAVYYCAARFYRASGRTPSYRGHHYDYWGQATQVTVSS | low polyreactivity |
| QLQLVESGGGLVQAGGSLRLSCAASGSTFRNNAMGWYRQAPGKERELVAAISRGGGSTYYADSVKWRFTISRDNAKNTVYLQMNSLKPDDTAVYYCARRPTGIYDYWGQGTQVTVSS | high polyreactivity |
| QLQLVESGGGLVQAGGSLRLSCAASGSTFRWYAKGWYRQAPGKERELVAAISYSGGRTYYADSVKGRFTISRDTAKNTVYLQMNSLKPEDTAVYYCAADYVESKSLLEYWGQGTQVTVSS | low polyreactivity |
| QLQLVESGGGLVQAGGSLRLSCAASGSTFRYYAMGWYRQAPGKERELVAAISRTGGSTYYADSVKVRFTISRDNAKNTVYLQMNSLKPEDTAVYYCNVRQFLNRYTSWDYRYHYDYWGQGSQVTVSS | high polyreactivity |
| QLQLVESGGGLVQAGGSLRLSCAASGSTFSYNAMGWYRQAPWKERELVAAISGSGGTTYYADSVKVRVTISRDNAKNTVYLQMNSLKPEDTAVYYCAARPFRSWRYDYWGQGSQVTVSS | low polyreactivity |
| QLQLVESGGGLVQAGGSLRLSCAASGSTQGVYAMGSYRQAPGKERELVAAISRSGGRTYYADSVKGRFTISRDNAKNTVYLQMNSLKPEDTAVYYCAADYYLWVYWYDYWGQGTQVTVSS | high polyreactivity |
| QLQLVESGGGLVQAGGSLRLSCAASGTIFDTYAMGWSRQAPGKEMELVAAIRWTGGSTYYADSVKGRFTISRENAKNTVYFQMNSLKPEDTAVYYCAATWYYHYNDWKPWFEYGYWGQGTQVTVSS | low polyreactivity |
| QLQLVESGGGLVQAGGSLRLSCAASRSTFKYYAMGWYRQAHGKERELVAAISRRGGSTYYADSVKGRFTISRDNAKNTVYLQMNSLKPEDTAVYYCAADIIRPVTVDYWGQGTQVTVSS | high polyreactivity |
| QLQLVESGGGLVQAGGSLRLSCAATGFIFRYYVMGWYRQAPGKERELVAAITSGSTYADSVKGRFTISRDNAKNTVYLQMISLKPEDTAVYYCAAVKSQRGGPYSRGGKFGYWGQGTQVTVSS | high polyreactivity |
| QLQLVESGGGLVQAGGSLRLSSAASGIIRVNAMGWNIQAPGKQRELVATITNVGSTNYADSVKGRFTISRDNAKNTVYLQMNSLKPEDTAVYYCAAEYDGPFYSFYPEQRYYWGQGTQVTVSS | low polyreactivity |
| QLQLVESGGGLVQAGGSLRVSCAASGSIFLRYAMGWYRQAAGKERELVAAITSSGGSTYYADSVKGRFTISRDNAKNTVYLQMNSLKPEDTAVYYCNRYSYLFPYYWKYDYWGQGTQVTVSS | high polyreactivity |
| QLQLVESGGGLVQSGGSLRLSCAASGRTFDWYTKGWYRQAPGKERELVAAITSGGTTNYADSVKGRFTISRDNAKNTVYLQMNSLKPEDTAVYYCAKDEGEGYDYWGQGTQVTVSS | low polyreactivity |
| QLQLVESGGVLDQAGRSLRLICAASVIIFRGYAKGRSRQAHGKERELVAAISRSGGRTYYADSVKGRFTISRDNAKKTVYLQRNSLKTEDTAVYYCAPQWLYLEYDYWGQGTQVTVSS | high polyreactivity |
| QLQLVESGRGLVQAGGSLRLSCAGSGFIVGYNAMGSYRQAPGKDRELVAAISSGGSTYYADSVKGRFTISRVNAKNTVYLQMNSLKPEDTAVYYCAVELGYPIQSYALWWDFEYWGQGTQVTVSS | low polyreactivity |
| QLQLVESLRGLVQAGGSLRLSCAASVSIIGPNAMGLYRQATGKERELVAAITLSGGSTYYADSVKGRFTISRDNAKNTVYLQMNSLKPEDTAVYYCNADLLPADAPLWVTGGDYWGQGTQVTESS | low polyreactivity |

| Sequence | polyreactivity (PSR sort gate) |
| --- | --- |
| QLQLVESRGGLVQSGGSLRLSCAASGRIFWRYAMGWYRQAPGNERELVAAISGRSGSTYYADSVKGRFTISRDNAKNTVYLLMNSLKAEDTAVYYCAAKYGTLRYDYWGQGTQVTVSS | high polyreactivity |
| QLQLVESVGGLVQAGGSLRLSCAPSGSTFYWNAMGWYRQAPGKERELVAVITSSGTRTYYADSVKGRFTISRDNAKNTVYLQMNSLKPEDTEVDYCAKRETYTGPNSRYGQWKKVYYWGQGTQVTVSS | low polyreactivity |
| QLQPVESGGGLVQAGGSLRLSSAASGSTFVSYDRGWYRQAPGKERALVAVITSGGSTNYADSVKGRFTISRDNAKNTVYLQMNSLKPEETAVYYCAKRRYGRSGGSRYHYWGQGTQVTVSS | high polyreactivity |
| QLQRVESGGGLVQAGGSLRLSCAASGSTFYPNAMGWYRQAPAKEREFVAAISTSAGRTYYADSVKGRFTISRDNAKNTVYLQMNSLKPEDTAVYYCNARYWVYYVYEYDSWGQGTQVTVSS | low polyreactivity |
| QVELQVSGGGLVRAGGSLRLSCAASGNIFDADIMGWYRQAPGKERELVASITGGGSTSYAESAKGRFTISRDNAKNAVYLQMKSLKPEDTAVYYCARDSWWYHHYDYWGQGTQVTVSS | low polyreactivity |
| QVELQVSGGGLVRAGGSLRLSCAASGNIFDADIMGWYRQAPGKERELVASITGGGSTSYAESAKGRFTISRDNAKNAVYLQMNSLKPEDTAVYYCARDSWWYHHYDYWGQGTQVTVSS | low polyreactivity |
| QVELVASGGGLVQAGGSLRLSCAASGSTFAANAMGWYRQAPGKERELVAAITSGGGSTYYADSVKGRFTISRDNEKITVYLQMNSLKPEDTAVYYCAALQSHGVDYDYWGLGTQVTVSS | low polyreactivity |
| QVELVESGGCLVQARGSLRLSCAGSGSIFYRNAMGWYRQAPGKERELVAAISSDGSTNYADSVKGRFTISRDNAKITVDLQMNSLIPEDTAVYYCAGPWTEILDYWGQGTQVTVSS | low polyreactivity |
| QVELVESGGGLVQAGGSLRLSCAASGSTFFKYDMGWYRQAPGKERELVAVITWSGGTTFYADSVKGRFTISRDNAKNTVYLQMNSLKPEDTAVYYCAADYYGYRYDYWGQGTQVTVSS | low polyreactivity |
| QVHHVESGGGLVQAGGSLRLSCAASGFIIPYYAMGWYRPAPGKERELVAAISWSGSNTYYADSVKGRFTISRDNAKNTVYLQMNSLKPEDTAVYYCAARYSVYYFVQRNGRYGYWGQGTQVTVSS | high polyreactivity |
| QVHHVESGGGLVQAGGSLRLSCAASGLILVPNTMGWYRQAPGKERELVAAISYSGGGTYYADSVKGRFTISRDNAKNNVYLQMNSLKPEDTAVYYCAAYVKRESAPYGYWGQGTQVTVSS | low polyreactivity |
| QVHLEESGGGLVQAGGSLRLSSAASGFTFRSNAMGWYRQAPGKERELVAAITSRGGSTYYADSVKGRFTISRDYAINTVYLQMNSLKPEDTAVYYGAADGRSRKFDYWGQGTQVTVSS | high polyreactivity |
| QVHLGETGGGLVQAGGSLRLSCAASGSIFSSYAMGWYRQAPGKETELVATITRGGRTSYADSVKGRFTISRDNAKNTVYLQMNSLKPEDTAVDYCAADLYDNVGEFNYWGEGTQVTVSS | low polyreactivity |
| QVHLLESWGGLFHAGGSPRLSCAASGRTFGRYAMGWYRQSPATERELVAAITFRGGHSYYADSVKGRFTISRDNAKNTVYFQMNSLKPEDTAVYYCAKRGGYWHKFDYWGQGTQVTVSS | high polyreactivity |
| QVHLQECGDGLVQALGSQRLSCAARCYISGYYYMGWYRQAPGKERELVAGIDAFGSSTNYADCVKGRFTISRYNAKNTVYLQMKSLKPEDTALYYCAARPDGDRLFSYWGQGTQVTVFS | low polyreactivity |
| QVHLQESGGGLEQAGGSPRLSCAASDNIFPDSVMCWYRQAPGKERELVATIGFGATTNYADSVKGRFTISRDNAKKTVFLQMNSLKPEDTAVYYCAADTLNYEYFCYWGQGTQVTVRS | low polyreactivity |
| QVHLVDSAGGLVQAGGSLRLSCSASGSTFAVYAMGWYRQAPGKERELVAAISSSGDRTYYADSVKGRFTFSRDNAKNTVYLQMNILKPEDTAVYYCAVAIGYVYKTYYYWGQGTQVTVSS | high polyreactivity |
| QVHLVDSGGCLVQAGGSLRLSCAASGRTFSAYAMGWYRQAPGKEREVVAAISRSGGSTYYADSVKGRFTISRDNAKNTVYLPMNSLTPEDTAVYDCAVRWPSARIPVKLEDWGQGTQVTVSS | high polyreactivity |
| QVHLVDSGGGLVQAGGILRLSCAASGRIFVNTMGCYRQAPGKEMELVAAITRSGVSTYYADSVKGRFTISRDNAKNTVYLQMNSLKPEDTAVYYCAAREWSGPKIYPPYRYNSWGQGTQVTVSS | high polyreactivity |
| QVHLVDSGGGLVQAGGRLRLSCPASVSTFYYYVKGWYRQPPGKERELVAAISSGCHTNYADSVKGRFTISRDNAKNTVYLQMNSLIPEDSAVYYCAAKPRRGTLLRYGYWGQGTQVTVSS | high polyreactivity |
